Results published in article PMC9302676.
Positions count from the first letter of the chain named. Names may count otherwise.

B1: P450 BM3 (CYP102A1) (Priestia megaterium NBRC 15308 = ATCC 14581) (protein)
chain: MTIKEMPQPKTFGELKNLPLLNTDKPVQALMKIADELGEIFKFEAPGRVTRYLSSQRLIKEACDESRFDKNLSQALKFVRDFAGDGLFTSWTHEKNWKKAHNILLPSFSQQAMKGYHAMMVDIAVQLVQKWERLNADEHIEVPEDMTRLTLDTIGLCGFNYRFNSFYRDQPHPFITSMVRALDEAMNKLQRANPDDPAYDENKRQFQEDIKVMNDLVDKIIADRKASGEQSDDLLTHMLNGKDPETGEPLDDENIRYQIITFLIAGHETTSGLLSFALYFLVKNPHVLQKAAEEAARVLVDPVPSYKQVKQLKYVGMVLNEALRLWPTAPAFSLYAKEDTVLGGEYPLEKGDELMVLIPQLHRDKTIWGDDVEEFRPERFENPSAIPQHAFKPFGNGQRACIGQQFALHEATLVLGMMLKHFDFEDHTNYELDIKETLTLKPEGFVVKAKSKKIPLGGIPSPSTEQSAKKVRKKAENAHNTPLLVLYGSNMGTAEGTARDLADIAMSKGFAPQVATLDSHAGNLPREGAVLIVTASYNGHPPDNAKQFVDWLDQASADEVKGVRYSVFGCGDKNWATTYQKVPAFIDETLAAKGAENIADRGEADASDDFEGTYEEWREHMWSDVAAYFNLDIENSEDNKSTLSLQFVDSAADMPLAKMHGAFSTNVVASKELQQPGSARSTRHLEIELPKEASYQEGDHLGVIPRNYEGIVNRVTARFGLDASQQIRLEAEEEKLAHLPLAKTVSVEELLQYVELQDPVTRTQLRAMAAKTVCPPHKVELEALLEKQAYKEQVLAKRLTMLELLEKYPACEMKFSEFIALLPSIRPRYYSISSSPRVDEKQASITVSVVSGEAWSGYGEYKGIASNYLAELQEGDTITCFISTPQSEFTLPKDPETPLIMVGPGTGVAPFRGFVQARKQLKEQGQSLGEAHLYFGCRSPHEDYLYQEELENAQSEGIITLHTAFSRMPNQPKTYVQHVMEQDGKKLIELLDQGAHFYICGDGSQMAPAVEATLMKSYADVHQVSEADARLWLQQLEEKGRYAKDVWAG
B2: P450 BM3 (CYP102A1) (Priestia megaterium NBRC 15308 = ATCC 14581; N320L/T437A) (protein)
chain: B1 chain with N320L, T437A
B3: P450 BM3 (CYP102A1) (Priestia megaterium NBRC 15308 = ATCC 14581; T412V/T437A) (protein)
chain: B1 chain with T412V, T437A
B4: P450 BM3 (CYP102A1) (Priestia megaterium NBRC 15308 = ATCC 14581; N320L/T412V/T437A) (protein)
chain: B1 chain with N320L, T412V, T437A
B5: P450 BM3 (CYP102A1) (Priestia megaterium NBRC 15308 = ATCC 14581; N320L/T412V) (protein)
chain: B1 chain with N320L, T412V

The proteins below were run on CC1=CC(=O)CC(C)(C)C1 (assay: purified protein). Conditions: 1 μM enzyme, 1 mM NADPH, KPi 50 mM pH 7.4, 2-50 mM substrate, 30.0 °C.

Protein | Km
B1 | 10.95 ± 0.80 mM
B2 | 10.09 ± 0.18 mM
B3 | 11.39 ± 0.84 mM
B4 | 8.29 ± 0.77 mM
B5 | 17.67 ± 0.46 mM
